Measurements as given in paper PMC5021340, “The Involvement of Mig1 from Xanthophyllomyces dendrorhous in Catabolic Repression: An Active Mechanism Contributing to the Regulation of Carotenoid Production”.

Biological target: Mig1 (Xanthophyllomyces dendrorhous, UniProt A0A1C9UL02 1-863)
Experiment: EMSA; poly(dI-dC); 20 mM HEPES pH 7.9, 50 mM KCl, 1 mM DTT, 0.1 mM EDTA, 5% glycerol (+2.5%), 200 ug/ml BSA, 50 ng/ul poly(dI-dC), 0.05% NP-40, 20 fmol DNA, 10 ug Mig1 in 20 ul, room temperature 20 min
Details: protein: recombinant; (pET-TEV), removed by TEV protease; label: 5' biotin; blunt

Sequence of Mig1 (A0A1C9UL02 entry or part of it): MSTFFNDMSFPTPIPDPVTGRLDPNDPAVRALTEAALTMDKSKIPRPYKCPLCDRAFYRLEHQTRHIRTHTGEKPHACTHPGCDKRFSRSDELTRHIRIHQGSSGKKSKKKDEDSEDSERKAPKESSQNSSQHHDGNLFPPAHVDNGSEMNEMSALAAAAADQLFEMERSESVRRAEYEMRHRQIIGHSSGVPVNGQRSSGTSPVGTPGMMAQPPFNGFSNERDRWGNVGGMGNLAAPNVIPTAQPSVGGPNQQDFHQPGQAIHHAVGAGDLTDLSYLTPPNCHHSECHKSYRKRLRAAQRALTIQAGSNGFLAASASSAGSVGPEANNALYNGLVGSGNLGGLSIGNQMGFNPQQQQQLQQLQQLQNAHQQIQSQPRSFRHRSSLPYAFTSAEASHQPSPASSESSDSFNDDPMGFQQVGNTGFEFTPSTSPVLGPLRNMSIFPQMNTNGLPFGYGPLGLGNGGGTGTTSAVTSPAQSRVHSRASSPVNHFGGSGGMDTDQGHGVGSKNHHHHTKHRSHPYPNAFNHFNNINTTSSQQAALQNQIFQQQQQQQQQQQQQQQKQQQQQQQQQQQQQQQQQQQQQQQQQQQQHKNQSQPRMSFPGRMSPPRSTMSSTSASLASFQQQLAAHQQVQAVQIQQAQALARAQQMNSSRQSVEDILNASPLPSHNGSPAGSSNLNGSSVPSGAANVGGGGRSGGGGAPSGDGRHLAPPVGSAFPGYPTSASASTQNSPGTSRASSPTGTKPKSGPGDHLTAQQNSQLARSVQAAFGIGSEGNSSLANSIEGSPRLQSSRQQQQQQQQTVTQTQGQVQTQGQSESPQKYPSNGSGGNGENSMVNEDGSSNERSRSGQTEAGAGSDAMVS

B1: grg2 box A (-348) 54 bp (dsDNA)
DNA 1: GAGGTATATGCGTTCCGCGAACTGCGGAGATGTGACGTCACATCTCGTCACAGC
DNA 2: GCTGTGACGAGATGTGACGTCACATCTCCGCAGTTCGCGGAACGCATATACCTC
binding result: binds
